Data on one substance can be found in publication PMC11474037.

This assay addresses insulin receptor (purified IR, consisting of α and β subunits) (human (cloned from HEK293T cells)) (UniProt P06213). The experiment in a line: SPR.

For the substance “HtB-mNG (insulin B chain fused to mNeonGreen) (domain or fragment)”, the Kd (usually the free concentration of one partner at which half of the binding sites on the other are occupied at equilibrium, for simple one-to-one binding) was found to be 3.33 µM.
